In patent US20010018511A1 (CANCER RESEARCH CAMPAIGN TECHNOLOGY, published 2001):

B1: phage clone 12/2 (peptide)
chain: VQNFIDYWTQQF
notes: Tested as whole phage showing the peptide; not shown: minor coat protein III of the filamentous phage of the display library; the peptide stands at its N-terminus; phage stra
B2: phage clone 15/1 (peptide)
chain: IDRAPTFRDHWFALV
notes: as for B1
B3: phage clone 15/5 (peptide)
chain: PRPALVFADYWETLY
notes: as for B1
B4: phage clone BB3 (peptide)
chain: PAFSRFWSDLSAGAH
notes: Tested as whole phage showing the peptide; also called hdm2 phage; hdm2-phage; not shown: minor coat protein III of the filamentous phage of the display library; the peptide stands at its N-terminus; phage stra
B5: phage clone 12/5 (peptide)
chain: TGPAFTHYWATF
notes: as for B1
B6: phage clone 12/1 (peptide)
chain: MPRFMDYWEGLN
notes: as for B1

Molecular target: T1, GST-hdm2 (1-188) (S. japonicum; human, UniProt Q00987 1-188)
T1 construct: range 1-188; Fusion made in E. coli BL21 from pGEX-2T; GST, linker, hdm2 1-188 in this order; also called GST-hdm2 protein
Test: single clone phage ELISA on coated antigen
Method: Amplified and purified phages from this round of biopanning are tested in an ELISA on the proteins used for their selection. For single clone screening E.coli K91 cells are infected with appropriate phage dilutions and spread on LB agar with 20 μg/ml tetracycline. Single colonies are transfered to wells of a 96-well tissue culture plate containing 200 μl 2×YT medium with 20 μg/ml tetracycline per well. Phage supernatant is collected for ELISA screening after a 24 hour incubation at 37° C. with shaking. ELISA positive clones are grown up as 2 ml bacterial cultures in 2×YT medium with 20 μg/ml tetracycline for 24 hours. Phage are PEG precipitated and redissolved in 200 μl TBS buffer. Phage DNA is extracted with phenol/chloroform and ethanol precipitated. The DNA pellet is redissolved in 10 μl water and used as template for sequencing (Sequenase).
100 μl phage suspension (supernatant or PEG concentrated phage) is diluted in PBST-M and added for three hours at 4° C. Bound phages are reacted with 100 μl HRP-labelled sheep anti-M13 antibody (Pharmacia) for one hour at room temperature followed by substrate development with 100 μl TMB/H202 (0.1 mg/ml TMB, 0.3% H₂O₂ in 0.1 M Na-acetate, pH 6.0) for 15 min. The reaction is stopped by adding 100 μl 1 M sulphuric acid to the substrate and the absorbance is measured at 450 nm. All washings between the incubation steps are done with tap water.

T1 sequence (Q00987 1-188): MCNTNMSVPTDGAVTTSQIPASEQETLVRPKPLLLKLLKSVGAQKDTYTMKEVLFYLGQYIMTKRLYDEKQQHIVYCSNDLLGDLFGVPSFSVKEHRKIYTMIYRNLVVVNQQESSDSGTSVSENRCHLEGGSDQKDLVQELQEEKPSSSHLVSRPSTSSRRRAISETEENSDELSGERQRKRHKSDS

| Binder | binding result |
| --- | --- |
| B1 | binds |
| B2 | binds |
| B3 | binds |
| B4 | binds |
| B5 | binds |
| B6 | binds |
